Experimental data as given in patent publication US20050272099A1.

Biological target: androgen receptor (UniProt P10275)
Assay: cell-based or functional assay

Sequence of UniProt P10275 (P10275 whole entry): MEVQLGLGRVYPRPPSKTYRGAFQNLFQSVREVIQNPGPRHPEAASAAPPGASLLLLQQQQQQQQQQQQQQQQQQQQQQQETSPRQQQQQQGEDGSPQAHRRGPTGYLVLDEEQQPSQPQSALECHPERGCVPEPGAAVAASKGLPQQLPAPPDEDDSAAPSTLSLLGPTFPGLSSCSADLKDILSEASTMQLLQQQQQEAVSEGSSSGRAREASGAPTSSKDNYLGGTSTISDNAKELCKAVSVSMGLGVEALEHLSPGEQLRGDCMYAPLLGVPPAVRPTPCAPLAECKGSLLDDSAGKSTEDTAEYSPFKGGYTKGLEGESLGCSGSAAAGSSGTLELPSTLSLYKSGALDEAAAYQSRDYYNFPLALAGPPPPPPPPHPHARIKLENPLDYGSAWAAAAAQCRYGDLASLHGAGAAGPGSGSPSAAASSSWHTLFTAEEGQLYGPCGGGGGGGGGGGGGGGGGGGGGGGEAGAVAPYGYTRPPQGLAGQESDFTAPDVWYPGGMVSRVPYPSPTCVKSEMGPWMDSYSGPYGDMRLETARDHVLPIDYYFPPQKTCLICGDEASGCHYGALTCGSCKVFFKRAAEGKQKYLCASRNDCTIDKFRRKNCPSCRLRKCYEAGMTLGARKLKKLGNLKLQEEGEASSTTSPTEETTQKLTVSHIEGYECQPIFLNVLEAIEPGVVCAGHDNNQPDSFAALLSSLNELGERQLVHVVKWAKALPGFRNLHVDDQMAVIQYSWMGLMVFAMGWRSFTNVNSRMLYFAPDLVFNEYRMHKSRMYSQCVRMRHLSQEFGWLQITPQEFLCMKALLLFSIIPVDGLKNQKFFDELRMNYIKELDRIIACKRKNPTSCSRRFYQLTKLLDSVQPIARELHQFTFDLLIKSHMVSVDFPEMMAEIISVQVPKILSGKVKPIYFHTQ

luciferase activity, AFP promoter (androgen responsive element) reporter in G2 cells, relative to the control reporter with mutated ARE: 3 to 4 fold
Substance: androgen receptor complex-associated protein (from UniProt Q58WW2 1-860)
